This is an account of results in patent publication US20250289869.

The subject of series [1] is FVIII169/VWF057 heterodimer.
Series [2] has as its system FVIII169/VWF059 heterodimer.

Sequence of FVIII169/VWF059 heterodimer (chain, as listed by the source, chain 1 of 2): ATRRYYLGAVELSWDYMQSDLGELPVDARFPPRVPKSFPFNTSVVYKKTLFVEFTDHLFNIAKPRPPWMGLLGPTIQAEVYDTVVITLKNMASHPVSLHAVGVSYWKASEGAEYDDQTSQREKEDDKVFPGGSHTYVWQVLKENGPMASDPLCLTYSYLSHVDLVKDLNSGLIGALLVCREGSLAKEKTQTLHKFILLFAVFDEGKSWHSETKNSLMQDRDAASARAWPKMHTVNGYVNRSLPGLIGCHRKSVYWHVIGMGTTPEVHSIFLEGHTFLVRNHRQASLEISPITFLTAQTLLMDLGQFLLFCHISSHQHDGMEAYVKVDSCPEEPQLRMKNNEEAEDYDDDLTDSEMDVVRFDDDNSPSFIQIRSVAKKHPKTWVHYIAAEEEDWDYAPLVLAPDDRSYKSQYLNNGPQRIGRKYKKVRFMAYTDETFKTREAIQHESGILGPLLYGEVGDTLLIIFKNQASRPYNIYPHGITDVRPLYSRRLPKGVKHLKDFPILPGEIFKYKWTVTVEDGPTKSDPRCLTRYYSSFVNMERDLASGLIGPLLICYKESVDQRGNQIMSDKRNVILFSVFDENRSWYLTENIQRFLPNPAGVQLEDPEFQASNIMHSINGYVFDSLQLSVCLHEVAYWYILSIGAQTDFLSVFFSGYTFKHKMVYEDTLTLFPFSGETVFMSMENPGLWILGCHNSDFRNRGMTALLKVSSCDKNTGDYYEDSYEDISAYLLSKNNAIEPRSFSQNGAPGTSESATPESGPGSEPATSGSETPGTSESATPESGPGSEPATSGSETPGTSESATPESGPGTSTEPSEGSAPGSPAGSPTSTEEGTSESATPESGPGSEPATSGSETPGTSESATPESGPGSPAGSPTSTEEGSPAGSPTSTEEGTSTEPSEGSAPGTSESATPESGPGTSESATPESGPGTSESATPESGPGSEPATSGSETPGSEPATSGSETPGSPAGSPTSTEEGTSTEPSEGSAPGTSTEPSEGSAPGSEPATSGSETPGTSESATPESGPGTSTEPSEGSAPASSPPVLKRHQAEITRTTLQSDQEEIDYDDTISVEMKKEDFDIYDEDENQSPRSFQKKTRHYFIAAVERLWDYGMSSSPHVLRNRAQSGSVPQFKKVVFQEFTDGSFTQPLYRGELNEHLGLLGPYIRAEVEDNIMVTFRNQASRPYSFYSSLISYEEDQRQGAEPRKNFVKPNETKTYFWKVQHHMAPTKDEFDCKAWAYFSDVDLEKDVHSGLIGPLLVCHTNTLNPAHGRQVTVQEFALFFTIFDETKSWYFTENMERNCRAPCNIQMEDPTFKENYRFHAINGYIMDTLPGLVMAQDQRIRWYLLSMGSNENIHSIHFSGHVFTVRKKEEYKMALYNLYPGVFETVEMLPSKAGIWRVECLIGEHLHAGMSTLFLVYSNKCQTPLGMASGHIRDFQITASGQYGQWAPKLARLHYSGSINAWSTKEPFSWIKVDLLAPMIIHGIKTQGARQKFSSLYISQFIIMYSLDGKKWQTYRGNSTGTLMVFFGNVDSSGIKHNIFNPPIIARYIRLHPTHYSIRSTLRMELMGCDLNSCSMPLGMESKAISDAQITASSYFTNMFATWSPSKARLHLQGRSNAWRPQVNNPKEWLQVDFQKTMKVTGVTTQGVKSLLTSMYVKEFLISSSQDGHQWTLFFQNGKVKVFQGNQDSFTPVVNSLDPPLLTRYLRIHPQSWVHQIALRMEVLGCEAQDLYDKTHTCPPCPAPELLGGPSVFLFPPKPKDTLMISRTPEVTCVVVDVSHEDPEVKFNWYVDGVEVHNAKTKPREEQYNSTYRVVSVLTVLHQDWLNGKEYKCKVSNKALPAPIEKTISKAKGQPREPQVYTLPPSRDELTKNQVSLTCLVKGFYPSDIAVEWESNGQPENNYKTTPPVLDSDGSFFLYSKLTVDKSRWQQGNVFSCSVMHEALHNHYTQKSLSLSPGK
Sequence of FVIII169/VWF059 heterodimer (chain, as listed by the source, chain 2 of 2): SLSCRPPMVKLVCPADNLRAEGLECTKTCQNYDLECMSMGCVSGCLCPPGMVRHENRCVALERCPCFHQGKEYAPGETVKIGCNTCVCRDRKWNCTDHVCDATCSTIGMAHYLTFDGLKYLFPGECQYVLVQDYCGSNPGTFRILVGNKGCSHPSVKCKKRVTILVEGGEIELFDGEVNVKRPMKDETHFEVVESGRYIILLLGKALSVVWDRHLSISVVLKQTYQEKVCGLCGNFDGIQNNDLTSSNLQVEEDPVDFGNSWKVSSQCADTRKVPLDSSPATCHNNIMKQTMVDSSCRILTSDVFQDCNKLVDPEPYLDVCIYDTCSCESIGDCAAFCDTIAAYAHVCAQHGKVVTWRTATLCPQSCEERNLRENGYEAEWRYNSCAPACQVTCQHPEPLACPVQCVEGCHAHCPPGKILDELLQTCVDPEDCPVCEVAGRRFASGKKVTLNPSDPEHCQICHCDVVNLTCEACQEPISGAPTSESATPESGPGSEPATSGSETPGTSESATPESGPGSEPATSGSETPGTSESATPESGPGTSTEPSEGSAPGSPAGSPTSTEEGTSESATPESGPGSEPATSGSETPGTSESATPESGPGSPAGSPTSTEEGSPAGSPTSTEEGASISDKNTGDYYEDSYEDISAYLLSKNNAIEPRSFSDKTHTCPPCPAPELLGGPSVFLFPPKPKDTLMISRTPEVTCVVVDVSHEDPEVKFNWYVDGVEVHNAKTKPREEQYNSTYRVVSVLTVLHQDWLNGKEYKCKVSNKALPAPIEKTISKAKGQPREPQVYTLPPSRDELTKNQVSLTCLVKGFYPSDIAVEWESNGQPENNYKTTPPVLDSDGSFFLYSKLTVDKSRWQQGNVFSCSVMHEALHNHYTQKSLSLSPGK
Sequence of FVIII169/VWF057 heterodimer (chain, as listed by the source, chain 1 of 2): as the sequence (chain, as listed by the source, chain 1 of 2) above
Sequence of FVIII169/VWF057 heterodimer (chain, as listed by the source, chain 2 of 2): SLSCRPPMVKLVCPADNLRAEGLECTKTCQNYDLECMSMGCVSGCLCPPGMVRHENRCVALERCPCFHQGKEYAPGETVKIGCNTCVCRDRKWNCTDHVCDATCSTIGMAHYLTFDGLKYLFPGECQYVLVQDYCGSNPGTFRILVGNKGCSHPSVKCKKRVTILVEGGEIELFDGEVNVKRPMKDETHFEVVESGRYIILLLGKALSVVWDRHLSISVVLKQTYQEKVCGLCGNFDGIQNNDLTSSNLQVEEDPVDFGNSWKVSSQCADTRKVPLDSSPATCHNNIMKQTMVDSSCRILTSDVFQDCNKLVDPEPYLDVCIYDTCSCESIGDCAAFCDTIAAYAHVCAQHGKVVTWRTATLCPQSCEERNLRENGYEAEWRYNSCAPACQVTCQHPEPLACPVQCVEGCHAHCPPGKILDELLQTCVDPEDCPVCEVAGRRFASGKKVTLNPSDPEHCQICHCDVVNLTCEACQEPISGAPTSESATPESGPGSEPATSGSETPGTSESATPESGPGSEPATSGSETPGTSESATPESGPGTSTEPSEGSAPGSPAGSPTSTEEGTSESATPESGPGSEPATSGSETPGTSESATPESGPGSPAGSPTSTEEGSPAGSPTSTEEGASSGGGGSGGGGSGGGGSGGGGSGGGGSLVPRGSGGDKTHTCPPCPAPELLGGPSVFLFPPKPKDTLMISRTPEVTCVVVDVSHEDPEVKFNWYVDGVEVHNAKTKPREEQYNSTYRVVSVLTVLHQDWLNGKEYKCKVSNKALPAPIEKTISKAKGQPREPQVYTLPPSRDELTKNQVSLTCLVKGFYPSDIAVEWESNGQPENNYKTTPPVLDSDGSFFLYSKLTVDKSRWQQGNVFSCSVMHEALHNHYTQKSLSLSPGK

human α-thrombin: the “thrombin digestion, release of D′D3 from Fc (SDS-PAGE / western blot time course, FVIII:thrombin about 22:1, 37° C.)” value in series [1] is given as “Un-cleaved FVIII169/VWF057 remained after 15 minutes”; in series [2], “little to no detectable un-cleaved FVIII 169/VWF059 after 5 minutes”. Further, in series [2], the “thrombin cleavage by mass spectroscopy (MS)” value is “By MS, FVIII 169/VWF059 again showed better release of D′D3 from Fc as compared to VWF057”.
